Results reported in paper PMC8231724, “A Glycolipid Glycosyltransferase with Broad Substrate Specificity from the Marine Bacterium “Candidatus Pelagibacter sp.” Strain HTCC7211” (Applied and Environmental Microbiology, 2021).

What was measured:
Assay in all cases: LC-MS of glycolipid product, Hanes-Woolf plot
Format in all cases: biochemical, Candidatus Pelagibacter sp. HTCC7211
Details in all cases: acceptor C16:0/C18:1 DAG, no added Mg2+, Tricine-KOH pH 8.5, 35 °C, 2 mM DTT
[1] = substrate: O=c1ccn([C@@H]2O[C@H](CO[P@@](=O)(O)O[P@@](=O)(O)O[C@H]3O[C@H](CO)[C@@H](O)[C@H](O)[C@H]3O)[C@@H](O)[C@H]2O)c(=O)[nH]1
Source text: (§1) LC-MS of glycolipid product, Hanes-Woolf plot on GTcp

[2] = substrate: O=c1ccn([C@@H]2O[C@H](COP(=O)(O)OP(=O)(O)O[C@H]3O[C@H](CO)[C@H](O)[C@H](O)[C@H]3O)[C@@H](O)[C@H]2O)c(=O)[nH]1
Source text: as §1

[3] = substrate: O=C(O)[C@H]1O[C@H](OP(=O)(O)OP(=O)(O)OC[C@H]2O[C@@H](n3ccc(=O)[nH]c3=O)[C@H](O)[C@@H]2O)[C@H](O)[C@@H](O)[C@@H]1O
Source text: as §1

B1: GTcp (Candidatus Pelagibacter sp. HTCC7211) (protein)
chain: MKILIVTDAYYPQVNGVVRTLHETGEILKSQGHTIEYITPQQFLTVPMPKYNEIRLSLNVWPRVSNLINSIKPDAIHIATEGPLGFMARRHCIKKGLKFTTSFHTRFDKYIKLYMPIIPAKWSEKFLCNFHNKAERILVTTESMREELIALGVDNNKMVTWTRGGNHGAFKNPVKRDLPYKRPIWIYVGRVAVEKNIKAFLDLDLEGTKVIIGKGPNLNKLKKKYPNDYFLGEKTNGELASHFASSDVFVFPSKTDTFGIVVLESLSCGTPVAAYPVPGPKDILGGSKIDTLDQDLKTSALKALKVNREDCLEFAKKYSWEETARIFYNNISPN
notes: full length, 334 aa (1,005 bp), codon-optimised synthetic gene in pET22b, His-tagged, E. coli BL21-CodonPlus(DE3)-RIL, Ni-NTA and Superdex 200, 38 kDa monomer, about 70 kDa dimer
Km [1]: 82 ± 0.3 µM
kcat [1]: 0.0975 ± 0.00667 s⁻¹
kcat/Km [1]: 1190 ± 45 M⁻¹ s⁻¹
Km [2]: 32 ± 0.4 µM
kcat [2]: 0.0172 ± 0.005 s⁻¹
kcat/Km [2]: 537 ± 48.3 M⁻¹ s⁻¹
Km [3]: 68 ± 0.5 µM
kcat [3]: 0.0675 ± 0.00167 s⁻¹
kcat/Km [3]: 993 ± 60 M⁻¹ s⁻¹
